# The RNAGym collection of RNA variant scans (doi:10.7554/elife.80360)
# B1: CPEB3 Ribozyme (parent)
# chain: GGGGGCCACAGCAGAAGCGUUCACGUCGCGGCCCCUGUCAGAUUCUGGUGAAUCUGCGAAUUCUGCUGU
# Variants of: B1
# Assay: self-cleavage, relative activity (ratio to wild type); higher = more cleavage; co-transcriptional
row,Variant,self-cleavage
1,G17U U44A,0.395
2,G17U U44C,0.368
3,C18G C45U,0.183
4,C18G C45A,0.0664
5,C18G C45G,0.113
6,C18A C45G,0.179
7,C18A C45A,0.0998
8,C18A C45U,0.21
9,C18G U46A,0.227
10,C18G U46C,0.15
11,C18A C54G,0.179
12,C18A C54U,0.173
13,G17C G58U,0.227
14,C18A G37A,0.14
15,C18A G37U,0.121
16,C18A G47U,0.203
17,C18A G47A,0.232
18,C18A G47C,0.181
19,G17U U38A,0.255
20,G17U U38G,0.149
21,C18A U64G,0.178
22,G17U U62C,0.23
23,G17U U62G,0.316
24,G17U U62A,0.281

row,Variant,self-cleavage
1,C18G U38C,0.234
2,C18G U38G,0.155
3,G17U C54G,0.166
4,G17U G37A,0.175
5,G17U G37C,0.159
6,G17U G37U,0.169
7,G17U G56A,0.32
8,G17U G56C,0.219
9,G17U G56U,0.2
10,G17C U62A,0.171
11,G17C U62G,0.201
12,C18A A51U,0.181
13,C18A A51G,0.233
14,C18A G48U,0.186
15,G17U C66G,0.24
16,G17U G30U,0.168
17,G17U G30C,0.119
18,G17C U69A,0.246
19,G17C U69G,0.303
20,C18G U43C,0.188
21,C18G U43G,0.0435
22,C18G U43A,0.114
23,C18G C57A,0.0895
24,C18G C57U,0.145

row,Variant,self-cleavage
1,C18A G30C,0.133
2,C18A G30A,0.117
3,C18A G30U,0.132
4,C18A G31U,0.129
5,C18A G31C,0.124
6,C18A G31A,0.187
7,G17U G48C,0.635
8,G17U G48U,0.694
9,G17C U46C,0.119
10,G17C U46G,0.101
11,G17C U46A,0.122
12,C18A U43A,0.117
13,C18A U43G,0.117
14,C18G C29A,0.16
15,C18G C29U,0.156
16,G17C U21C,0.0625
17,G17C U21G,0.229
18,C18A U44A,0.185
19,C18A U44G,0.123
20,C18A C24A,0.142
21,C18A C24U,0.0604
22,C18G C24A,0.105
23,C18G G56U,0.128
24,G17U G68A,0.875

row,Variant,self-cleavage
1,C18A U49G,0.259
2,C18A A42C,0.166
3,C18A A42U,0.0858
4,G17U U46C,0.537
5,C18A A40G,0.176
6,C18A A40U,0.0764
7,C18A C39U,0.136
8,C18A C39G,0.142
9,C18A C39A,0.156
10,C18A C33U,0.251
11,C18A C33G,0.123
12,C18A G19C,0.0974
13,C18A G19U,0.12
14,C18A C63G,0.147
15,C18A C63U,0.151
16,C18A A60U,0.131
17,C18G G19A,0.114
18,C18G G19U,0.153
19,G17U U21A,0.367
20,G17U U21G,0.0999
21,G17U A59G,0.357
22,G17U A59U,0.147
23,G17C U61G,0.205
24,G17C U61C,0.118

row,Variant,self-cleavage
1,C18G C35G,0.151
2,C18G C35U,0.203
3,G17C U26A,0.156
4,G17C U26C,0.145
5,G17C U26G,0.175
6,C18G U21C,0.219
7,C18G U21G,0.174
8,G17U U43C,0.446
9,C18G C33A,0.193
10,C18G C33U,0.226
11,C18G C33G,0.147
12,C18A U67C,0.23
13,C18A U67A,0.268
14,C18A U67G,0.348
15,G17U U53G,0.336
16,G17U U53A,0.265
17,G17U G65U,0.292
18,G17U G65A,0.254
19,C18G G28U,0.129
20,C18G G28C,0.911
21,G17U C29G,0.885
22,G17U C29U,0.268
23,G17U C29A,0.921
24,C18G C54A,0.186

row,Variant,self-cleavage
1,G17U C33A,0.228
2,G17U C33U,0.347
3,C18G G31A,0.0986
4,C18G G31U,0.181
5,C18G G31C,0.142
6,C18G A59G,0.22
7,C18G A59U,0.17
8,C18G G58U,0.176
9,C18G G58C,0.154
10,G17U G19U,0.123
11,G17U G19A,0.209
12,G17U G58U,0.65
13,G17U G58C,0.527
14,C18G U26G,0.267
15,C18G U26C,0.175
16,C18G U26A,0.119
17,C18A C22U,0.0813
18,C18A C22A,0.144
19,C18A C22G,0.159
20,C18A A59C,0.0942
21,G17U A60C,0.185
22,G17U A60G,0.248
23,G17U A60U,0.229
24,G17U U36G,0.191

row,Variant,self-cleavage
1,G17U U36A,0.0699
2,G17U U55G,0.238
3,G17U U55A,0.177
4,C18A C34A,0.145
5,G17U C27G,0.185
6,G17U C27A,0.132
7,C18A G65U,0.102
8,C18A G65A,0.148
9,G17C U43G,0.0986
10,G17C U43C,0.111
11,G17C U43A,0.0954
12,C18A C57A,0.117
13,G17C U36G,0.163
14,G17C U36A,0.18
15,C18A A52U,0.258
16,C18A A52G,0.201
17,C18G G50U,0.143
18,C18G G50A,0.266
19,C18A U26A,0.128
20,G17U U61A,0.333
21,C18G A42U,0.137
22,C18G A42G,0.229
23,G17U C63G,0.229
24,G17U C63U,0.322

row,Variant,self-cleavage
1,G17U C63A,0.182
2,G17U C45G,0.395
3,G17U C45U,0.528
4,C18A U53C,0.169
5,C18G G30A,0.236
6,C18G G30U,0.183
7,C18G G30C,0.167
8,G17U U64C,0.251
9,C18G G41A,0.113
10,C18G G41U,0.134
11,C18G G41C,0.0964
12,G17U C34U,0.514
13,G17U C34G,0.177
14,G17U C35U,0.338
15,G17U C35A,0.214
16,G17U C35G,0.227
17,G17C U38G,0.101
18,G17C U38C,0.137
19,C18G G37U,0.0757
20,C18G G37C,0.111
21,C18A U20C,0.158
22,C18G C22A,0.179
23,C18G C22G,0.236
24,G17U C57U,0.228

row,Variant,self-cleavage
1,C18G A23C,0.187
2,G17U G47A,0.683
3,G17U G47C,0.69
4,C18G G47A,0.21
5,C18G G68C,0.21
6,C18G G68A,0.403
7,C18G G48A,0.145
8,C18G G48C,0.17
9,C18G G48U,0.208
10,C18G C63A,0.179
11,C18G C63U,0.136
12,C18G C32G,0.195
13,C18G C32A,0.105
14,C18G C32U,0.195
15,C18A U55G,0.113
16,C18A U55A,0.142
17,G17U G41C,0.14
18,G17U G41A,0.152
19,G17U G41U,0.194
20,G17U C22U,0.169
21,G17U C22A,0.132
22,G17U C22G,0.112
23,C18G A52U,0.0952
24,C18A C27A,0.163

row,Variant,self-cleavage
1,C18A A23G,0.171
2,G17U C32A,0.154
3,G17U G31A,0.191
4,G17U G31C,0.129
5,G17U G31U,0.169
6,G17U A52C,0.5
7,G17U A52G,0.585
8,C18G C34U,0.133
9,C18G C34A,0.131
10,C18G C34G,0.153
11,C18A U61A,0.138
12,C18A U61G,0.166
13,C18A C32A,0.192
14,C18A C32G,0.181
15,C18A C32U,0.22
16,C18G C27G,0.224
17,C18G C27A,0.16
18,C18A C35G,0.104
19,C18A C35U,0.222
20,C18A G41U,0.211
21,C18A G41C,0.119
22,C18A U21G,0.109
23,C18A U21C,0.181
24,C18A U21A,0.107

row,Variant,self-cleavage
1,C18G A60U,0.154
2,C18G A60C,0.0758
3,C18G A60G,0.137
4,G17C U49A,0.149
5,G17C U49G,0.148
6,G17C U49C,0.158
7,C18A U36C,0.142
8,C18A U36A,0.182
9,C18A G28A,0.12
10,C18A G28U,0.889
11,C18A G28C,0.426
12,G17C U67C,0.145
13,G17C U67G,0.209
14,G17U A51U,0.43
15,G17U A51G,0.569
16,G17U A51C,0.423
17,G17U C39G,0.289
18,G17U C39A,0.167
19,G17C U53G,0.126
20,G17U A42U,0.334
21,G17U A42C,0.299
22,C18A G68C,0.28
23,C18A G68A,0.357
24,C18G A40U,0.167

row,Variant,self-cleavage
1,C18G A40C,0.152
2,G17U G28C,0.11
3,G17U G28A,0.108
4,C18A G25U,0.0886
5,C18A G25C,0.178
6,G17U C24G,0.0814
7,G17U C24A,0.133
8,G17U C24U,0.179
9,G17U C18A,0.137
10,G17U C18U,0.155
11,G17U C18G,0.138
12,G17U G25C,0.107
13,G17U G25A,0.143
14,C18A U46A,0.217
15,C18A U46G,0.219
16,C18G U20G,0.218
17,C18G U20C,0.0509
18,C18A G58U,0.184
19,C18A G58A,0.155
20,G17C U64C,0.203
21,G17C U64G,0.171
22,G17C U64A,0.112
23,G17C G65U,0.131
24,G17C G65A,0.158

row,Variant,self-cleavage
1,C18A U69A,0.302
2,C18A U69G,0.307
3,C18A C29G,0.15
4,G17C G68A,0.331
5,G17C G68C,0.242
6,G17U U49A,0.662
7,G17U U49C,0.554
8,G17U U49G,0.455
9,C18G U36A,0.12
10,C18G U36G,0.145
11,C18G U36C,0.122
12,G17U G50A,0.571
13,G17U G50U,0.552
14,G17U G50C,0.386
15,G17U U69C,0.874
16,C18G A51C,0.159
17,C18G U44A,0.116
18,C18G C66A,0.11
19,G17U U20G,0.192
20,G17U U20C,0.107
21,G17U U20A,0.151
22,G17C U20A,0.123
23,G17C U20G,0.132
24,G17U A23G,0.331

row,Variant,self-cleavage
1,G17U A23C,0.462
2,G17C U55G,0.062
3,G17C U55C,0.138
4,C18G U49C,0.147
5,C18G U49G,0.217
6,C18G G65C,0.141
7,C18G G65A,0.131
8,C18A G56C,0.186
9,C18A G50C,0.208
10,C18A G50U,0.284
11,C18A G50A,0.191
12,G17U U67C,0.537
13,G17U U26C,0.286
14,G17U U26G,0.297
15,G17U U26A,0.312
16,G17U A40U,0.149
17,C18G,0.188
18,C18A,0.2
19,C18A U38A,0.0704
20,C18A U38C,0.0484
21,C18G G25C,0.092
22,C18G G25U,0.151
